Source: patent US20190201542A1 (AbbVie / Abbott, published 2019)

T1: human DLL3 (human, UniProt Q9NYJ7 27-492, limits assumed)
T1 construct: also called hDLL3; DLL3 protein
T1 sequence: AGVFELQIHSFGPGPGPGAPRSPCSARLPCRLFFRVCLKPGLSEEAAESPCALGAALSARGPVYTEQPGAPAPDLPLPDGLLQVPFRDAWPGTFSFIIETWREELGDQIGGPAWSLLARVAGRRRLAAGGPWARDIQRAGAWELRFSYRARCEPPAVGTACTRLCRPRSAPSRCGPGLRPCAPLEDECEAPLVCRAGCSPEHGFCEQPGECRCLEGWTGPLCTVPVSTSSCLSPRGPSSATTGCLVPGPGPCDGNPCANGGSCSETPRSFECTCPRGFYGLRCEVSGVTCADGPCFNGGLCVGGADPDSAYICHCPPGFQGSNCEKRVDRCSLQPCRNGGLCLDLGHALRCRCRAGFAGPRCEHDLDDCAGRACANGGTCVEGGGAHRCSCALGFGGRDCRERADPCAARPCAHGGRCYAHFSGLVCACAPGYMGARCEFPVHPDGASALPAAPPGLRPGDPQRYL

T2: human ASCL1 (human, UniProt P50553 1-236, limits assumed)
T2 construct: Transcription factor; also called hASCL1; immobilized human ASCL1
T2 sequence (looked up): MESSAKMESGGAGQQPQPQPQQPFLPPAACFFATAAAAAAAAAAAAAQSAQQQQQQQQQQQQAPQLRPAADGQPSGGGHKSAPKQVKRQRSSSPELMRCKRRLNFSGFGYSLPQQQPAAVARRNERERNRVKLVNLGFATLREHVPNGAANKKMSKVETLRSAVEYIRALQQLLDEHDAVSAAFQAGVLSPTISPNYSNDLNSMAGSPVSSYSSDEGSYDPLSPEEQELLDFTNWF


Tests used:
[1] = molecular target: T1, human DLL3; experiment: surface plasmon resonance
[2] = molecular target: T2, human ASCL1; experiment: screen on immobilized hASCL1 or h293-hASCL1 cells

| binding result [1] | binding result [2] | Binder |
| --- | --- | --- |
| binds | – | hSC16.13 (antibody, human IgG1, kappa, V domains shown, humanized IgG1/kappa; also called humanized SC16.13) VH: QITLKESGPTLVKPTQTLTLTCTFSGFSLSTSGMGVGWIRQPPGKALEWLAHIWWDDVKRYSPSLKSRLTITKDTSKNQVVLTMTNMDPVDTATYYCARIVSFDNDVVSAMDYWGQGTLVTVSS VL: DIQMTQSPSSLSASVGDRVTITCSASSSVSYMYWYQQKPGKAPKLLIYLTSNLASGVPSRFSGSGSGTDFTLTISSLQPEDFATYYCQQWRSNPFTFGQGTKLEIKR |
| binds | – | chimeric SC16.25 (antibody, human IgG1, kappa, V domains shown, murine V regions on human IgG1/kappa; also called chimeric parent antibody of hSC16.25) VH: QVTLKESGPGILQPSQTLSLTCSFSGFSLSTSGMGVGWIRQPSGEGLEWLTDIWWDDNKYYNPSLKSRLTISKDTSSNQVFLNITSVDTADTATYYCARRVNYYYDPYYAMDYWGQGTSVTVSS VL: QIVLTQSPAIMSASPGEKVTMTCSASSSVSYMHWYQQKSGTSPKRWIYDSSKLASGVPARFSGSGSGTSYSLTISSMEAEDAATYYCQQWSSNPLTFGAGTKLELKR |
| binds | – | hSC16.25 (antibody, human IgG1, kappa, V domains shown, humanized IgG1/kappa; also called humanized SC16.25) VH: QITLKESGPTLVKPTQTLTLTCTFSGFSLSTSGMGVGWIRQPPGKALEWLTDIWWDDNKYYNPSLKSRLTITKDTSKNQVVLTMTNMDPVDTATYYCARRVNYYYDPYYAMDYWGQGTLVTVSS VL: EIVLTQSPDFQSVTPKEKVTITCSASSSVSYMHWYQQKPDQSPKLLIKDSSKLASGVPSRFSGSGSGTDFTLTINSLEAEDAATYYCQQWSSNPLTFGQGTKLEIKR |
| – | binds | SC72.165 (antibody, V domains shown, murine mAb) VH: QVQLQQPGAELVRPGASVRLSCKASGYSFTSYWINWVKQRPGQGLEWIGNIYPGSSNTNYNEKFKRKATLTVDTSSSTAYMQLSSLTSDDSAVYYCARSESDYWGQGTTLTVSS VL: DIVLTQSPASLAVSPGQRATISCKASQSVGYDGDTYLSWYQQKPGQPPKLLIYGVSILESGIPARFSGSGSGTDFTLNIHPVEEEDAATYYCQQSSEDPYTFGGGTKLEIK |
| – | binds | SC72.216 (antibody, V domains shown, murine mAb) VH: QIQLVQSGPELRKPGETVKISCKASGYTFTNYPMHWVKQAPGKGFKWMGWINTYSGVPSYADDFKGRFAFSLETSASSAYLQINNLKNEDMATYFCARHNYNSYDVFAYWGQGTLVTVSA VL: DIVVTQSPASLAVSLGQRATISCKASQSVDYDGDSYMNWYQQKPGQPPKLLIYGASNLESGIPARFSGSGSGTDFTLNIHPVEEEDAATYYCQQSNEDPYTFGGGTKLEIK |
| – | binds | SC72.181 (antibody, V domains shown, murine mAb) VH: QVQLQQPGAEVVKPGASVRLSCKASGYTFTSYWINWVKQRPGQGLEWIGNIYPGSSSTNYNEKFKSKATLTVDTSSSTAYMQLSSLTSDDSAVYYCSRSESDYWGQGTTLTVSS VL: DIVLTQSPASLAVSLGQRATISCKASQSVDDDGGTYMSWYQQKPGQPPKLLIYGVFILESGIPARFSGSGSGTDFTLNIHPVEEEDAATYYCQQSNEDPYTFGGGTKLEIK |
| binds | – | hSC16.34 (antibody, human IgG1, kappa, V domains shown, humanized IgG1/kappa; also called humanized SC16.34) VH: QVQLVQSGAEVKKPGASVKVSCKASGYTFTNYGMNWVRQAPGQRLEWMGWINTYTGDPTYADDFKGRVTITRDTSASTAYMELSSLRSEDTAVYYCARIGGNSPSDYWGQGTTVTVSS VL: DIQMTQSPSSLSASVGDRVTITCKASQSVSNDVAWYQQKPGKVPKLLIYYASNRYSGVPSRFSGSGSGTDFTLTISSLQPEDVATYFCQQDYSSPWTFGGGTKVEIKR |
| binds | – | hSC16.56 (antibody, human IgG1, kappa, V domains shown, humanized IgG1/kappa; also called humanized SC16.56) VH: QVQLVQSGAEVKKPGASVKVSCKASGYTFTNYGMNWVRQAPGQGLEWMGWINTYTGEPTYADDFKGRVTMTTDTSTSTAYMELRSLRSDDTAVYYCARIGDSSPSDYWGQGTLVTVSS VL: EIVMTQSPATLSVSPGERATLSCKASQSVSNDVVWYQQKPGQAPRLLIYYASNRYTGIPARFSGSGSGTEFTLTISSLQSEDFAVYYCQQDYTSPWTFGQGTKLEIKR |
| binds | – | chimeric SC16.15 (antibody, human IgG1, kappa, V domains shown, murine V regions on human IgG1/kappa; also called chimeric parent antibody of hSC16.15) VH: QVQLQQSGAELAKPGASVKMSCKASGYTFTRYWIHWIKQRPGQGLEWIGYINPTTVYTEFNQNFKDKATLTADKSSTTASMQLSSLTSEDSAVYYCARGGSNFFDYWGQGTTLTVSS VL: DIQMTQSPASLAASVGETVAITCRASENIYYNLAWYQQKQGKSPQLLIYTANSLEDGVPSRFSGSGSGTQYSLKINSMQPEDSATYFCKQAYDVPPTFGGGTKLEIKR |
| – | binds | SC72.94 (antibody, V domains shown, murine mAb) VH: QVQLQQPGTELVKPGASVKLSCKASAYTFTSLWIHWVKQRPGQGLEWIGDINPSIGDTYYNERFKSKATLTVDKSSSTAYMQLSSLTSEDSAVYYCTTGDSWGQGTTLTVSS VL: DIQMNQSPSSLSASLGDTITITCRASQGISIWLSWYQQKPGNIPKLLIYKASNLHTGVPPSFSGSGSGTDFTLTISSLQPEDIATYYCLQSQSYPWTFGGGTKLEIK |
| binds | – | chimeric SC16.34 (antibody, human IgG1, kappa, V domains shown, murine V regions on human IgG1/kappa; also called chimeric parent antibody of hSC16.34) VH: QIQLVQSGPELKRPGETVKISCKASGYTFTNYGMNWVKQAPGKGLKWMGWINTYTGDPTYADDFKGRFAFSLETSASTAYLQINNLKNEDTATYFCARIGGNSPSDYWGQGTSLTVSS VL: SIVMTQTPKFLLVSAGDRVTITCKASQSVSNDVAWYQQKPGQSPKLLIYYASNRYSGVPDRFTGSGYGTDFTFTISTVQAEDLAVYFCQQDYSSPWTFGGGTKLEIKR |
| binds | – | chimeric SC16.56 (antibody, human IgG1, kappa, V domains shown, murine V regions on human IgG1/kappa; also called chimeric parent antibody of hSC16.56) VH: QIQLVQSGPELKKPGETVKISCKASGYTFTNYGMNWVKQAPGKGLKWMAWINTYTGEPTYADDFKGRFAFSLETSASTASLQIINLKNEDTATYFCARIGDSSPSDYWGQGTTLTVSS VL: SIVMTQTPKFLLVSAGDRVTITCKASQSVSNDVVWYQQKPGQSPKLLIYYASNRYTGVPDRFAGSGYGTDFSFTISTVQAEDLAVYFCQQDYTSPWTFGGGTKLEIRR |
| – | binds | SC72.201 (antibody, V domains shown, murine mAb) VH: EVNLEESGGGLVQPGGSMKLSCVASGFTFSNYWMNWVRQSPEKGLEWVAQIRSKSDNYATHYAESVKGRFTISRDDSKSSVYLQMNNLRSEDTGIYYCRTGPDVWGTGTTVTVSS VL: DIQMTQSPASLSVSVGETVTITCRASENIYSSLAWYQQKQGNSPQLLVYAATKLADGVPSRFSGSGSGTQYSLKINSLQSEDFGSYYCQHFWGTTWTFGGGTKLEIK |
| – | binds | SC72.96 (antibody, V domains shown, murine mAb) VH: EVQLQQSGPELVKPGASVKMSCKASGYTLTAYNIHWVKQSHGKSLEWIGFINPHSGGTTYNEKFKGKATLTVNKSSSTANMELRSLTSEDSAVYYCASIYYYGSSYFDHWGQGTTLTVSS VL: DIQMTQSPASLSASVGETVTMTCRASENIHSNLVWYQQKQGKSPQLLVYAATNLADGVPSRFSGSGSGSQFSLKIDSLQPEDFGSYLCQHFYGTPRTFGGGTKLEIK |
| – | binds | SC72.132 (antibody, V domains shown, murine mAb) VH: EVKLVESEGGLVQPGSSMKLSCTASGFTFSDYYMAWVRQVPEKGLEWVATIDYDGSNTYYLDSLKSRFIISRDNAKNILYLQMSSLKSEDTATYYCARDGGYDEDYFDYWGQGTTLTVSS VL: DIVMSQSPSSLAVSVGEKVTLSCKSSQTLLYSSNQQNYLAWYQQKPGQSPKLLIYWASTRESGVPDRFTGSGSGTDFTLTISSVKAEDLAVYYCHQYYTYPFTFGSGTKLEIK |
| binds | – | hSC16.15 (antibody, human IgG1, kappa, V domains shown, humanized IgG1/kappa; also called humanized SC16.15) VH: QVQLVQSGAEVKKPGASVKVSCKASGYTFTRYWIHWIRQAPGQGLEWMGYINPTTVYTEFNQNFKDRVTMTRDTSTSTVYMELSSLRSEDTAVYYCARGGSNFFDYWGQGTTVTVSS VL: AIQLTQSPSSLSASVGDRVTITCRASENIYYNLAWYQQKPGKAPKLLIYTANSLEDGVPSRFSGSGSGTDFTLTISSLQPEDFATYFCKQAYDVPPTFGGGTKLEIKR |
| – | binds | SC72.91 (antibody, V domains shown, murine mAb) VH: QVQLQQSGPEVVKPGASVKLSCKASGYTFTTYDINWVKQRPGQGLEWIGWIYFRDGTNKYNEKFKGKATLTVDTSSSTAYMELHSLTSEDSAVYFCASVYDGYYVSGFDIMDYWGQGTSVTVSS VL: DVVLTQTPLSLPVSLGDQASIYCRSSQSIVHSNGNTYFEWYLQKPGQSPKLLIYKVSNRLSGVPDRFSGSGSGTDFTLKISRVEAVDLGIYYCFQASHVPFTFGAGTKLELK |
